Assay results reported in publication PMC4070910, “Cathepsin S Signals via PAR2 and Generates a Novel Tethered Ligand Receptor Agonist” (PLoS ONE, 2014).

Test: Specific activity of recombinant cathepsin S
Type: biochemical
Settings: Z-VVR-AMC fluorimetric and Z-FR-pNA colorimetric assays
Protocol: Recombinant human cathepsin S was produced as follows. The human cathepsin S proprotein coding region was isolated by PCR using the forward and reverse primers […] CCTG and […] and a template of plasmid DNA containing the entire coding sequence of human cathepsin S. The PCR product was cut with Nco I and Xho I, and cloned into the pTYB4 expression vector from New England Biolabs for expression in E.coli. Cells were grown in LB medium induced with 0.3 mM IPTG, harvested by centrifugation, resuspended in lysis buffer A (0.5 M NaCl, 0.05 M Tris, 5 mM EDTA, pH 8.0) and lysed in a French press. The lysate was centrifuged and the protein was found predominantly in inclusion bodies which were dissolved in buffer B (10 mM DTT and 8 M urea), and refolded in the presence of buffer B containing 0.7 M L-arginine, 0.01 M glutathione, 0.001 M glutathione disulfide, and 0.005 M EDTA as described. The refolded procathepsin S was concentrated by Minimate Concentrator (Pall Corporation) and washed three times with buffer A. It was activated after adjusting to pH 4.5 with acetic acid, adding DTT to 5 µM and incubating at 37°C for 3 hours. […] The specific activity of cathepsin S was assayed using Z-VVR-AMC in fluorimetric and Z-FR-pNA in colorimetric assays[22] and determined to be 10,000 mU/mg protein.

B1: cathepsin S: Recombinant human cathepsin S, cysteine protease, expressed in E.coli, refolded and activated (protein, UniProt P25774 115-331, looked up)
Cathepsin S: LPDSVDWREKGCVTEVKYQGSCGACWAFSAVGALEAQLKLKTGKLVSLSAQNLVDCSTEKYGNKGCNGGFMTTAFQYIIDNKGIDSDASYPYKAMDQKCQYDSKYRAATCSKYTELPYGREDVLKEAVANKGPVSVGVDARHPSFFLYRSGVYYEPSCTQNVNHGVLVVGYGDLNGKEYWLVKNSWGHNFGEEGYIRMARNKGNHCGIASFPSYPEI
- specific activity: 10,000 mU/mg protein
